Measurements reported in patent US20200033363A1 (GARVAN INSTITUTE OF MEDICAL RESEARCH, published 2020).
Each block holds one binder with its values, some of them ahead of it.

Experiments:
[1] = target: T1, hen egg-white lysozyme (HEL) (hen, UniProt P00698 19-147); assay: biolayer interferometry (Example 5); printed as 'Affinity (nM)' in Table 4
T1 construct: Bought protein; It was biotinylated for phage selection; In BLI it was captured through biotinylated HyHEL-10 or HyHEL-5 Fab; also called hen egg white lysozyme antigen

[2] = target: T1, hen egg-white lysozyme (HEL); assay: biolayer interferometry (BLItz); HEL captured by biotinylated HyHEL-10 Fab on streptavidin sensors; Ig5 at 2000, 1000, 500 nM
[3] = target: T1, hen egg-white lysozyme (HEL); assay: printed as 'Affinity (nM)' in Table 4; method not given; differs from the 30 nM of Example 5
[4] = target: T1, hen egg-white lysozyme (HEL); assay: biolayer interferometry (BLItz); HEL captured by biotinylated HyHEL-5 Fab on streptavidin sensors; Ig12 at 1000, 750, 375 nM
[5] = target: T2, human VEGFA 121 (human, UniProt P15692-9 27-147, biotinylated (BLI assays)); assay: bio-layer interferometry on immobilised VEGF (biotinylated VEGFA 121 by paragraph 199)
T2 construct: also called biotinylated VEGF
T2 sequence (looked up): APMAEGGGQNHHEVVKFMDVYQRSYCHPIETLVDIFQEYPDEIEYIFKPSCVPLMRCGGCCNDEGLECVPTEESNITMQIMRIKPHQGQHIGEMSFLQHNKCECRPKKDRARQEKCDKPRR

[6] = target: T3, human VEGFB (human, UniProt P49765-2 22-188, limits assumed); assay: biolayer interferometry
T3 sequence (looked up): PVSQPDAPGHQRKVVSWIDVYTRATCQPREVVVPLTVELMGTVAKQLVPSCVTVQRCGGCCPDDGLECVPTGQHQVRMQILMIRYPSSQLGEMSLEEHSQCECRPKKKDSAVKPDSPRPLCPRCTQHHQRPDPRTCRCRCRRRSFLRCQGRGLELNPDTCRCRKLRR

[7] = target: T4, mouse VEGFA164 (mouse, UniProt Q00731-2 27-190); assay: biolayer interferometry
T4 sequence (looked up): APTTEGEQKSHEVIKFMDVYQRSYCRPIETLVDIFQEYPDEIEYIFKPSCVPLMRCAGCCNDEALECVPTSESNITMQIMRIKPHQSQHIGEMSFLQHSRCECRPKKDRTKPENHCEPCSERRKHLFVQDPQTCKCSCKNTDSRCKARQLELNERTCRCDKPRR

[8] = target: T5, human PlGF (human, UniProt P49763-2 19-149, limits assumed); assay: biolayer interferometry
T5 sequence (looked up): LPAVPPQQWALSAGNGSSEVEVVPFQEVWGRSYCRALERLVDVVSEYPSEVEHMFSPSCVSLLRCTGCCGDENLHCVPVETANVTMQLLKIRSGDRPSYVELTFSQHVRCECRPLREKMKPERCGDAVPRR

[9] = target: T2, human VEGFA 121; assay: biolayer interferometry, generally the same method as for Ig5 and Ig12; immobilized biotinylated VEGF

T1 sequence (P00698 19-147): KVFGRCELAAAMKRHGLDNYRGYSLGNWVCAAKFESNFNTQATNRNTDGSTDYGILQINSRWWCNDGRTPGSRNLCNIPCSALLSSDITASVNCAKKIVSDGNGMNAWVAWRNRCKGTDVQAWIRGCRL

Kd [1]: 130 nM
koff [2]: 0.0057 s⁻¹
kon [2]: 43000 M⁻¹ s⁻¹
B1: immunoglobulin homodimer Ig5 (other)
VL: DIQMTQSPSSLSASVGDRVTITCRASQDIAAALNWYQQKPGKAPKLLIYASSYLQSGVPSRFSGSGSGTDFTLTISSLQPEDFATYYCQQDGYYPATFGQGTKVEIKR
notes: also called VL5; Ig52

Kd [3]: 64 nM
Kd [4]: 30 nM
koff [4]: 0.0025 s⁻¹
kon [4]: 84000 M⁻¹ s⁻¹
B2: immunoglobulin homodimer Ig12 (other)
VL: DIQMTQSPSSLSASVGDRVTITCRASQDIASDLNWYQQKPGKAPKLLIYSDSYLQSGVPSRFSGSGSGTDFTLTISSLQPEDFATYYCQQYYMIPSTFGQGTKVEIKR
notes: Homodimer of two identical human Vkappa1 light chain variable domains, expressed in E. coli and purified on Protein L. Structure with HEL is PDB 4N1C; also called VL12; Ig122

Kd [5]: ~3 nM
binding result [6]: no binding
Kd [7]: < 10 nM
binding result [8]: no binding
B3: VLD9 fused to mouse IgG2c hinge-Fc region (VLD9-Fc, long native hinge) (Fc fusion)
chain: DIQMTQSPSSLSASVGDRVTITCRASRAIAAYLNWYQQKPGKAPKLLIYAYSDLQSGVPSRFSGSGSGTDFTLTISSLQPEDFATYYCQQVWANPYTFGQGTKVEIKRA
notes: domain: hinge and Fc region; Expressed in Expi293 cells; also called VLD9-Fc native hinge; VLD9-Fc fusion protein; not shown: Mouse IgG2c hinge and Fc region

Kd [9]: < 10 nM
B4: VLD9 homodimer (other)
VL: DIQMTQSPSSLSASVGDRVTITCRASRAIAAYLNWYQQKPGKAPKLLIYAYSDLQSGVPSRFSGSGSGTDFTLTISSLQPEDFATYYCQQVWANPYTFGQGTKVEIKRA
notes: Homodimer of two identical human light chain variable domains selected on VEGF; Expressed generally as Ig5 and Ig12 were; also called VLD9 dimer; immunoglobulin VLD9
